In patent US20060257938A1, “Method of screening for drugs that block ligand binding to a lipid binding protein” (priority 2005, published 2006):
Residue numbers refer to the chain shown, from its start. Several values for one entry are separate records, joined by “and”; a condition that tells them apart may be missing. Identical values can stand only once.

B1: 38Q1, 72A (protein, listed as Rattus norvegicus)
chain: AFDGTWKVDRNENYEKFMEKMGINVVKRKLGAHDNLKQTITQEGNKFTVKESSNFRNIDVVFELGVDFAYSAADGTELTGTWTMEGNKLVGKFKRVDNGKELIAVREISGNELIQTYTYEGVEAKRIFKKE
modifications: PEPTIDE (1)...(131) wild-type rat intestinal fatty acid binding protein
B2: 38V2, 72A (protein, listed as Rattus norvegicus)
chain: B1 chain with Q38V
modifications: PEPTIDE (1)...(131) wild-type rat intestinal fatty acid binding protein
B3: 38S1, 72A (protein, listed as Rattus norvegicus)
chain: B1 chain with Q38S
modifications: PEPTIDE (1)...(131) wild-type rat intestinal fatty acid binding protein
B4: 38W1, 72A (protein, listed as Rattus norvegicus)
chain: B1 chain with Q38W
modifications: PEPTIDE (1)...(131) wild-type rat intestinal fatty acid binding protein
B5: 38N1, 72A (protein, listed as Rattus norvegicus)
chain: B1 chain with Q38N
modifications: PEPTIDE (1)...(131) wild-type rat intestinal fatty acid binding protein
B6: 38I3, 72A (protein, listed as Rattus norvegicus)
chain: B1 chain with Q38I
modifications: PEPTIDE (1)...(131) wild-type rat intestinal fatty acid binding protein
B7: 38H1, 72A (protein, listed as Rattus norvegicus)
chain: B1 chain with Q38H
modifications: PEPTIDE (1)...(131) wild-type rat intestinal fatty acid binding protein
B8: 40F2, L72A (protein, listed as Rattus norvegicus)
chain: B1 chain with Q38L, I40F
modifications: PEPTIDE (1)...(131) wild-type rat intestinal fatty acid binding protein
B9: 38Y1, 72A (protein, listed as Rattus norvegicus)
chain: B1 chain with Q38Y
modifications: PEPTIDE (1)...(131) wild-type rat intestinal fatty acid binding protein
B10: 38K1, 72A (protein, listed as Rattus norvegicus)
chain: B1 chain with Q38K
modifications: PEPTIDE (1)...(131) wild-type rat intestinal fatty acid binding protein
B11: 38G1, 72A (protein, listed as Rattus norvegicus)
chain: B1 chain with Q38G
modifications: PEPTIDE (1)...(131) wild-type rat intestinal fatty acid binding protein
B12: 38T3, 72A (protein, listed as Rattus norvegicus)
chain: B1 chain with Q38T
modifications: PEPTIDE (1)...(131) wild-type rat intestinal fatty acid binding protein
B13: 36N, 72A (protein, listed as Rattus norvegicus)
chain: B1 chain with L36N, Q38L
modifications: PEPTIDE (1)...(131) wild-type rat intestinal fatty acid binding protein
B14: 36Y, 72A (protein, listed as Rattus norvegicus)
chain: B1 chain with L36Y, Q38L
modifications: PEPTIDE (1)...(131) wild-type rat intestinal fatty acid binding protein
B15: 102P, 72A (protein, listed as Rattus norvegicus)
chain: B1 chain with Q38L, L102P
modifications: PEPTIDE (1)...(131) wild-type rat intestinal fatty acid binding protein
B16: 36S, 72A (protein, listed as Rattus norvegicus)
chain: B1 chain with L36S, Q38L
modifications: PEPTIDE (1)...(131) wild-type rat intestinal fatty acid binding protein
B17: 38F1, 72A (protein, listed as Rattus norvegicus)
chain: B1 chain with Q38F
modifications: PEPTIDE (1)...(131) wild-type rat intestinal fatty acid binding protein
B18: 102Q, 72A (protein, listed as Rattus norvegicus)
chain: B1 chain with Q38L, L102Q
modifications: PEPTIDE (1)...(131) wild-type rat intestinal fatty acid binding protein
B19: 38E1, 72A (protein, listed as Rattus norvegicus)
chain: B1 chain with Q38E
modifications: PEPTIDE (1)...(131) wild-type rat intestinal fatty acid binding protein
B20: 36R, 72A (protein, listed as Rattus norvegicus)
chain: B1 chain with L36R, Q38L
modifications: PEPTIDE (1)...(131) wild-type rat intestinal fatty acid binding protein
B21: 36Q, 72A (protein, listed as Rattus norvegicus)
chain: B1 chain with L36Q, Q38L
modifications: PEPTIDE (1)...(131) wild-type rat intestinal fatty acid binding protein
B22: 38A2, 72A (protein, listed as Rattus norvegicus)
chain: B1 chain with Q38A
modifications: PEPTIDE (1)...(131) wild-type rat intestinal fatty acid binding protein
B23: 36P, 72A (protein, listed as Rattus norvegicus)
chain: B1 chain with L36P, Q38L
modifications: PEPTIDE (1)...(131) wild-type rat intestinal fatty acid binding protein

Assay: Probe fluorescence ratio response to arachidonic acid relative to ADIFAB2
Format: binding
Conditions: Arachidonic acid; response relative to ADIFAB2
Method in brief: (§1)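 Fluorescently labeled rat intestinal FABP variants were read at two emission wavelengths, near the unbound maximum (about 420 to 480 nm) and the FFA-bound maximum (about 495 to 580 nm). R = Fλ1/Fλ2 after subtracting probe-free intensity; ΔR = R+agent − R0, normalized to ADIFAB2 (rI-FABP-L72A).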

| Molecule | DR/DR AA |
| --- | --- |
| B1 | 1.87 |
| B2 | 1.65 |
| B3 | 1.28 |
| B4 | 1.35 |
| B5 | 1.08 |
| B6 | 1.18 |
| B7 | 1.24 |
| B8 | 0.89 |
| B9 | 2.08 |
| B10 | 0.83 |
| B11 | 1.03 |
| B12 | 1.60 |

Same assay, conditions: arachidonic acid; response relative to ADIFAB2

| Molecule | DR/DR AA |
| --- | --- |
| B13 | 0.47 |
| B14 | 0.68 |
| B15 | 0.50 |
| B16 | 0.49 |
| B17 | 0.91 |
| B18 | 0.62 |
| B19 | 0.57 |
| B20 | 1.04 |
| B21 | 1.20 and 0.837 |
| B22 | 1.23 |
| B23 | 0.32 |

Assay: Probe fluorescence ratio response to linolenic acid relative to ADIFAB2
Format: binding
Conditions: response relative to ADIFAB2
Method in brief: as §1

| Molecule | DR/DR LNA |
| --- | --- |
| B13 | 0.42 |
| B1 | 1.87 |
| B14 | 0.68 |
| B15 | 0.56 |
| B2 | 1.67 |
| B16 | 0.50 |
| B17 | 0.96 |
| B3 | 1.37 |
| B4 | 1.34 |
| B5 | 1.14 |
| B18 | 0.71 |
| B19 | 0.29 |
| B20 | 1.17 |
| B6 | 1.21 |
| B7 | 1.19 |
| B8 | 0.99 |
| B21 | 1.28 and 0.880 |
| B22 | 1.30 |
| B23 | 0.36 |
| B9 | 1.88 |
| B10 | 0.86 |
| B11 | 1.07 |
| B12 | 1.64 |

Assay: Probe fluorescence ratio response to linoleic acid relative to ADIFAB2
Format: binding
Conditions: response relative to ADIFAB2
Method in brief: as §1

| Molecule | DR/DR LA |
| --- | --- |
| B13 | 0.47 |
| B1 | 1.90 |
| B14 | 0.75 |
| B15 | 0.54 |
| B2 | 1.70 |
| B16 | 0.50 |
| B17 | 0.95 |
| B3 | 1.37 |
| B4 | 2.41 |
| B5 | 1.12 |
| B18 | 0.66 |
| B19 | 0.59 |
| B20 | 1.17 |
| B6 | 1.22 |
| B7 | 1.25 |
| B8 | 0.90 |
| B21 | 1.26 and 0.927 |
| B22 | 1.31 |
| B23 | −7.45 |
| B9 | 1.82 |
| B10 | 0.90 |
| B11 | 1.10 |
| B12 | 1.58 |

Assay: Probe fluorescence ratio response to oleic acid relative to ADIFAB2
Format: binding
Conditions: response relative to ADIFAB2
Method in brief: as §1

| Molecule | DR/DR OA |
| --- | --- |
| B13 | 0.38 |
| B1 | 1.75 |
| B14 | 0.66 |
| B15 | 0.49 |
| B2 | 1.75 |
| B16 | 0.43 |
| B17 | 0.97 |
| B3 | 1.28 |
| B4 | 1.58 |
| B5 | 0.97 |
| B18 | 0.60 |
| B19 | 0.54 |
| B20 | 1.14 |
| B6 | 1.21 |
| B7 | 1.16 |
| B8 | 0.90 |
| B21 | 1.12 and 0.792 |
| B22 | 1.26 |
| B23 | 0.14 |
| B9 | 1.72 |
| B10 | 0.76 |
| B11 | 1.03 |
| B12 | 1.55 |

Assay: Probe fluorescence ratio response to palmitic acid relative to ADIFAB2
Format: binding
Conditions: response relative to ADIFAB2
Method in brief: as §1

| Molecule | DR/DR PA |
| --- | --- |
| B13 | 0.39 |
| B1 | 1.30 |
| B14 | 0.60 |
| B15 | 0.39 |
| B2 | 1.50 |
| B16 | 0.42 |
| B17 | 0.85 |
| B3 | 0.71 |
| B4 | 1.55 |
| B5 | 0.65 |
| B18 | 0.30 |
| B19 | 0.31 |
| B20 | 0.70 |
| B6 | 1.12 |
| B7 | 0.74 |
| B8 | 0.80 |
| B21 | 0.81 and 0.777 |
| B22 | 0.68 |
| B23 | 0.31 |
| B9 | 1.52 |
| B10 | 0.48 |
| B11 | 0.56 |
| B12 | 1.02 |
